Measured values taken from the Human Domainome abundance scans (Beltran et al. 2025).
± gives the uncertainty stated by the source.

B1: Glucocorticoid receptor, residues 419 to 494; numbered along this chain, P04150 (parent)
chain: KLCLVCSDEASGCHYGVLTCGSCKVFFKRAVEGQHNYLCAGRNDCIIDKIRRKNCPACRYRKCLQAGMNLEARKTK

Variants of: B1
Assay: abundance fitness (aPCA) (normalised: wild type 0, dead -1); higher = more abundant; growth selection in yeast, the domain comes from the species named
Conditions: Homo sapiens

Variant	abundance fitness
K53V	-0.037 ± 0.035
R73T	0.024 ± 0.051
R73D	-0.125 ± 0.076
R73Y	-0.062 ± 0.073
R73C	-0.019 ± 0.052
R73I	-0.066 ± 0.07
R73S	0.003 ± 0.037
Y15P	-0.134 ± 0.048
Y15T	-0.05 ± 0.046
Y15I	-0.298 ± 0.084
Y15G	-0.096 ± 0.035
Y15H	-0.088 ± 0.08
Y15D	-0.055 ± 0.049
Y15L	-0.164 ± 0.037
Y15A	-0.085 ± 0.041
C55R	-0.929 ± 0.077
R29I	0.018 ± 0.064
R29K	0.03 ± 0.059
R29Y	-0.072 ± 0.1
H14T	-0.161 ± 0.049
H14G	-0.187 ± 0.031

Variant	abundance fitness
H14F	-0.088 ± 0.11
L4G	-0.03 ± 0.032
L4T	0.004 ± 0.04
L4A	-0.096 ± 0.043
L4W	-0.068 ± 0.041
L4C	0.016 ± 0.049
L4P	-0.098 ± 0.046
L4V	-0.052 ± 0.035
G12C	-0.194 ± 0.078
G12Y	-0.206 ± 0.065
G12P	-0.318 ± 0.07
G12F	-0.083 ± 0.071
C39D	-0.863 ± 0.17
C39I	-1 ± 0.3
C39E	-0.641 ± 0.078
C39T	-0.553 ± 0.21
C39H	-0.575 ± 0.27
C39Q	-0.586 ± 0.11
N36V	-0.106 ± 0.039
K28Q	0.014 ± 0.056
K28D	-0.061 ± 0.069

Variant	abundance fitness
K28E	0.007 ± 0.047
K28T	0.001 ± 0.042
K28R	-0.034 ± 0.033
K28C	-0.121 ± 0.069
K28G	-0.051 ± 0.031
C45V	-0.698 ± 0.082
C45E	-0.762 ± 0.12
C45W	-0.932 ± 0.13
C45I	-0.948 ± 0.3
C45M	-1.18 ± 0.32
C45T	-0.99 ± 0.27
S11V	-0.005 ± 0.037
S11A	-0.043 ± 0.036
S11P	-0.096 ± 0.065
S11D	0.021 ± 0.049
S11H	0.008 ± 0.064
E9K	0.105 ± 0.057
E9D	-0.015 ± 0.077
E9Y	-0.105 ± 0.072
E9R	0.04 ± 0.032
E9T	0.089 ± 0.045

Variant	abundance fitness
E9N	0.12 ± 0.063
C13P	-0.07 ± 0.047
C13F	-0.005 ± 0.074
Q34L	-0.099 ± 0.04
Q34I	-0.188 ± 0.093
Q34M	0.017 ± 0.043
Q34N	0.08 ± 0.087
Q34A	-0.016 ± 0.038
Y60V	-0.215 ± 0.037
Y60M	-0.07 ± 0.049
Y60N	-0.478 ± 0.13
Y60H	-0.178 ± 0.11
Y60D	-0.907 ± 0.17
Y60C	-0.694 ± 0.16
G33S	-0.045 ± 0.04
G33W	-0.135 ± 0.038
G33H	-0.006 ± 0.067
G33V	-0.044 ± 0.034
K74A	-0.033 ± 0.049
K74Q	0.063 ± 0.057
K74Y	0.043 ± 0.15
